Assay [1] has as its target HIV-1 Env of 20 pseudotyped viruses representing 10 different HIV-1 clades. Briefly: cell-based or functional assay.
For assay [2] the target is unchanged. Nature of the assay: cell-based or functional assay. This is another data set of the same source.
Assay [3] concerns the target T1, MPER binding peptide (Acetyl-[…]-Ttds-Lys-(Biotin)-NH2) (HIV-1).
Assay [4] has as its target T1, MPER binding peptide …. The source holds these as a separate data set.

Like-named read-outs stand apart in the source and are kept apart here.

The record followed here is US20220226495A1.

Usually Kd stands for the free concentration of one partner at which half of the binding sites on the other are occupied at equilibrium, for simple one-to-one binding. Low values mean a tighter complex, high ones a looser complex. The koff is a measure of how fast the partners let go of each other. Higher therefore signals a short-lived complex. One may read the kon as the second-order rate constant of association.

B1: V1/V2 directed Ab “a” (antibody, V domains shown)
VH: QVHLTQSGPEVRKPGTSVKVSCKAPGNTLKTYDLHWVRSVPGQGLQWMGWISHEGDKKVIVERFKAKVTIDWDRSTNTAYLQLSGLTSGDTAVYYCAKGSKHRLRDYALYDDDGALNWAVDVDYLSNLEFWGQGTAVTVSS
VL: DFVLTQSPHSLSVTPGESASISCKSSHSLIHGDRNNYLAWYVQKPGRSPQLLIYLASSRASGVPDRFSGSGSDKDFTLKISRVETEDVGTYYCMQGRESPWTFGQGTKVDIK
As for B1, in assay [1], the % VS Neutralized IC80 <1 µg/mL was found to be 45%, the % VS Neutralized IC80 <50 µg/mL was determined as 55%, the Geometric Mean was 0.094 µg/mL and the Median IC80 was determined as 0.06 µg/mL. In addition, in assay [1], the Total VS Neutralized IC80 <1 µg/mL (viruses of 20) stood at 9 and the Total VS Neutralized IC80 <50 µg/mL (viruses of 20) was 11.

B2: V1/V2 directed Ab “b” (antibody, V domains shown)
VH: QVQLVESGGGVVQPGTSLRLSCAASQFRFDGYGMHWVRQAPGKGLEWVASISHDGIKKYHAEKVWGRFTISRDNSKNTLYLQMNSLRPEDTALYYCAKDLREDECEEWWSDYYDFGKQLPCAKSRGGLVGIADNWGQGTMVTVSS
VL: QSVLTQPPSVSAAPGQKVTISCSGNTSNIGNNFVSWYQQRPGRAPQLLIYETDKRPSGIPDRFSASKSGTSGTLAITGLQTGDEADYYCATWAASLSSARVFGTGTKVIVL
In assay [2], B2 had a % VS Neutralized IC80 <1 µg/mL of 45%, a % VS Neutralized IC80 <50 µg/mL of 45%, a Geometric Mean of 0.039 µg/mL and a Median IC80 of 0.051 µg/mL. In addition, in assay [2], the Total VS Neutralized IC80 <1 µg/mL (viruses of 20) stood at 9 and the Total VS Neutralized IC80 <50 µg/mL (viruses of 20) was 9.

B3: Binding Protein 2 (protein)
heavy 1: RAHLVQSGTAMKKPGASVRVSCQTSGYTFTAHILFWFRQAPGRGLEWVGWIKPQYGAVNFGGGFRDRVTLTRDVYREIAYMDIRGLKPDDTAVYYCARDRSYGDSSWALDAWGQGTTVVVSAASTKGPSVFPLAPSSKSTSGGTAALGCLVKDYFPEPVTVSWNSGALTSGVHTFPAVLQSSGLYSLSSVVTVPSSSLGTQTYICNVNHKPSNTKVDKKVEPKSCDKTHTCPPCPAPELLGGPSVFLFPPKPKDTLMISRTPEVTCVVVDVSHEDPEVKFNWYVDGVEVHNAKTKPREEQYNSTYRVVSVLTVLHQDWLNGKEYKCKVSNKALPAPIEKTISKAKGQPREPQVCTLPPSRDELTKNQVSLSCAVKGFYPSDIAVEWESNGQPENNYKTTPPVLDSDGSFFLVSKLTVDKSRWQQGNVFSCSVLHEALHSHYTQKSLSLSPG
light 1: YIHVTQSPSSLSVSIGDRVTINCQTSQGVGSDLHWYQHKPGRAPKLLIHHTSSVEDGVPSRFSGSGFHTSFNLTISDLQADDIATYYCQVLQFFGRGSRLHIKRTVAAPSVFIFPPSDEQLKSGTASVVCLLNNFYPREAKVQWKVDNALQSGNSQESVTEQDSKDSTYSLSSTLTLSKADYEKHKVYACEVTHQGLSSPVTKSFNRGEC
heavy 2: EVRLVESGGGLVKPGGSLRLSCSASGFDFDNAWMTWVRQPPGKGLEWVGRITGPGEGWSVDYAESVKGRFTISRDNTKNTLYLEMNNVRTEDTGYYFCARTGKYYDFWSGYPPGEEYFQDWGQGTLVIVSSDKTHTQVHLTQSGPEVRKPGTSVKVSCKAPGNTLKTYDLHWVRSVPGQGLQWMGWISHEGDKKVIVERFKAKVTIDWDRSTNTAYLQLSGLTSGDTAVYYCAKGSKHRLRDYALYDDDGALNWAVDVDYLSNLEFWGQGTAVTVSSDKTHTASTKGPSVFPLAPSSKSTSGGTAALGCLVKDYFPEPVTVSWNSGALTSGVHTFPAVLQSSGLYSLSSVVTVPSSSLGTQTYICNVNHKPSNTKVDKKVEPKSCDKTHTCPPCPAPELLGGPSVFLFPPKPKDTLMISRTPEVTCVVVDVSHEDPEVKFNWYVDGVEVHNAKTKPREEQYNSTYRVVSVLTVLHQDWLNGKEYKCKVSNKALPAPIEKTISKAKGQPREPQVYTLPPCRDELTKNQVSLWCLVKGFYPSDIAVEWESNGQPENNYKTTPPVLDSDGSFFLYSKLTVDKSRWQQGNVFSCSVLHEALHSHYTQKSLSLSPG
light 2: DFVLTQSPHSLSVTPGESASISCKSSHSLIHGDRNNYLAWYVQKPGRSPQLLIYLASSRASGVPDRFSGSGSDKDFTLKISRVETEDVGTYYCMQGRESPWTFGQGTKVDIKDKTHTASELTQDPAVSVALKQTVTITCRGDSLRSHYASWYQKKPGQAPVLLFYGKNNRPSGIPDRFSGSASGNRASLTITGAQAEDEADYYCSSRDKSGSRLSVFGGGTKLTVLDKTHTRTVAAPSVFIFPPSDEQLKSGTASVVCLLNNFYPREAKVQWKVDNALQSGNSQESVTEQDSKDSTYSLSSTLTLSKADYEKHKVYACEVTHQGLSSPVTKSFNRGEC
In assay [3], B3 yielded a Ka of 1.65e+08 M⁻¹, a Kd of 6.05 nM, a koff of 0.000697 s⁻¹ and an on-rate (kon) of 115000 M⁻¹ s⁻¹. In assay [1], this molecule came in with a % VS Neutralized IC80 <1 µg/mL of 65%, a % VS Neutralized IC80 <50 µg/mL of 90%, a Geometric Mean of 0.222 µg/mL and a Median IC80 of 0.375 µg/mL. For the same molecule, in assay [1], the Total VS Neutralized IC80 <1 µg/mL (viruses of 20) worked out at 13 and the Total VS Neutralized IC80 <50 µg/mL (viruses of 20) was determined as 18. This molecule returned a fold higher affinity than the MPER antibody in assay [4] of 3.1 fold.

B4: Binding Protein 3 (protein)
heavy 1: B3 heavy 1
light 1: B3 light 1
heavy 2: QVHLTQSGPEVRKPGTSVKVSCKAPGNTLKTYDLHWVRSVPGQGLQWMGWISHEGDKKVIVERFKAKVTIDWDRSTNTAYLQLSGLTSGDTAVYYCAKGSKHRLRDYALYDDDGALNWAVDVDYLSNLEFWGQGTAVTVSSDKTHTEVRLVESGGGLVKPGGSLRLSCSASGFDFDNAWMTWVRQPPGKGLEWVGRITGPGEGWSVDYAESVKGRFTISRDNTKNTLYLEMNNVRTEDTGYYFCARTGKYYDFWSGYPPGEEYFQDWGQGTLVIVSSDKTHTASTKGPSVFPLAPSSKSTSGGTAALGCLVKDYFPEPVTVSWNSGALTSGVHTFPAVLQSSGLYSLSSVVTVPSSSLGTQTYICNVNHKPSNTKVDKKVEPKSCDKTHTCPPCPAPELLGGPSVFLFPPKPKDTLMISRTPEVTCVVVDVSHEDPEVKFNWYVDGVEVHNAKTKPREEQYNSTYRVVSVLTVLHQDWLNGKEYKCKVSNKALPAPIEKTISKAKGQPREPQVYTLPPCRDELTKNQVSLWCLVKGFYPSDIAVEWESNGQPENNYKTTPPVLDSDGSFFLYSKLTVDKSRWQQGNVFSCSVLHEALHSHYTQKSLSLSPG
light 2: ASELTQDPAVSVALKQTVTITCRGDSLRSHYASWYQKKPGQAPVLLFYGKNNRPSGIPDRFSGSASGNRASLTITGAQAEDEADYYCSSRDKSGSRLSVFGGGTKLTVLDKTHTDFVLTQSPHSLSVTPGESASISCKSSHSLIHGDRNNYLAWYVQKPGRSPQLLIYLASSRASGVPDRFSGSGSDKDFTLKISRVETEDVGTYYCMQGRESPWTFGQGTKVDIKDKTHTRTVAAPSVFIFPPSDEQLKSGTASVVCLLNNFYPREAKVQWKVDNALQSGNSQESVTEQDSKDSTYSLSSTLTLSKADYEKHKVYACEVTHQGLSSPVTKSFNRGEC
For the molecule B4, in assay [3], the Ka was 6e+07 M⁻¹, the Kd came to 16.7 nM, the koff came out at 0.000779 s⁻¹ and the kon was 46700 M⁻¹ s⁻¹. In assay [1], this molecule gave a % VS Neutralized IC80 <1 µg/mL of 60%, a % VS Neutralized IC80 <50 µg/mL of 90%, a Geometric Mean of 0.287 µg/mL and a Median IC80 of 0.469 µg/mL. In assay [1], the Total VS Neutralized IC80 <1 µg/mL (viruses of 20) was found to be 12 and the Total VS Neutralized IC80 <50 µg/mL (viruses of 20) was determined as 18.
